Test results published in US20250011443A1 (published 2025).
Positions count from the first letter of the chain named. One block for each binder: values may come before it.

Assays:
[1] = target: T1, SR344 (N-terminal 1st to 344th amino acids of soluble human IL-6R) (human, UniProt P08887 20-344, limits assumed); experiment: SPR (Biacore T100), antibody captured on Protein A/G, SR344 as analyte, 37 C
T1 construct: also called recombinant soluble human IL-6 receptor; soluble human IL-6 receptor
T1 sequence (looked up): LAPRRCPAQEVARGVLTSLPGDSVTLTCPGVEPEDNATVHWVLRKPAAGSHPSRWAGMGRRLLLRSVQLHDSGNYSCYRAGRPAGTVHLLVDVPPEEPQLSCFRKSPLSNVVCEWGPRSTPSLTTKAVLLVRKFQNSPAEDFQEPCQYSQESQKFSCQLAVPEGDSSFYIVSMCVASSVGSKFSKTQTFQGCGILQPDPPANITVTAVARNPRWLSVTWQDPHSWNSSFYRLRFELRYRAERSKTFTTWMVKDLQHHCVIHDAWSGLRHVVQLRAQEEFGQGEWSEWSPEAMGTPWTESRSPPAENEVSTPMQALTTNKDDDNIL

[2] = target: T2, soluble GPC3 core polypeptide (human, UniProt P51654 25-563); experiment: competitive ELISA, soluble GPC3 core polypeptide on the plate, competitor biotinylated GPC3-H2L2
T2 construct: also called soluble GPC3 core protein; glypican 3 (antigen)
T2 sequence (P51654 other isoform, or with tags, fused parts or gaps limits assumed): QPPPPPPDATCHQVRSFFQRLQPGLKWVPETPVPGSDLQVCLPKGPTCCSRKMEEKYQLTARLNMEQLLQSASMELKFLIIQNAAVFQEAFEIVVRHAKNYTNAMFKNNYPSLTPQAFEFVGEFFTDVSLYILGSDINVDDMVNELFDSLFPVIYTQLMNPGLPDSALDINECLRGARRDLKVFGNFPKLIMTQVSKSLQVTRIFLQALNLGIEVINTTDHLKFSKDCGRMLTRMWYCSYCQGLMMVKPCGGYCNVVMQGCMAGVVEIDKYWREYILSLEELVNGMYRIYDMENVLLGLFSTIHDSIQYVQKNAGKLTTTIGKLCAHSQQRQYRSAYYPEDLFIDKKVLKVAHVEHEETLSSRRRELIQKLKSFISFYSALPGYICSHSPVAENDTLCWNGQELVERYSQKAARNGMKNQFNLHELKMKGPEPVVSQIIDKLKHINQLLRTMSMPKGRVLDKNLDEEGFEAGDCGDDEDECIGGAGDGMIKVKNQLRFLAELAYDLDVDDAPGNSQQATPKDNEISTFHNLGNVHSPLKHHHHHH

- fold weaker affinity for SR344 than for rhIL-6sR [1]: 2 fold
B1: RDC_23 (antibody, V domains shown)
VH: QVQLQESGPGLVRPSQTLSLTCTVSGYSITSDHAWSWVRQPPGRGLEWIGYISYSGITTYNPSLKSRVTMLRDTSKNQFSLRLSSVTAADTAVYYCARVLARITAMDYWGQGSLVTVSS
VL: DIQMTQSPSSLSASVGDRVTITCRASQDISSYLNWYQQKPGKAPKLLIYYTSRLHSGVPSRFSGSGSGTDFTFTISSLQPEDIATYYCGQGNRLPYTFGQGTKVEIK
notes: also called RDC_5H / RDC_11L

- binding result [2]: binds
B2: GPC3_H2L2 (antibody, human IgG1, kappa, V domains shown)
VH: QVQLVQSGAEVKKPGASVKVSCKASGYTFTDYEMHWVRQAPGQGLEWMGALDPKTGDTAYSQKFKGRVTLTADKSTSTAYMELSSLTSEDTAVYYCTRFYSYTYWGQGTLVTVSS
VL: DVVMTQSPLSLPVTPGEPASISCRSSQSLVHSNRNTYLHWYLQKPGQSPQLLIYKVSNRFSGVPDRFSGSGSGTDFTLKISRVEAEDVGVYYCSQNTHVPPTFGQGTKLEIKR

- binding result [2]: binds
B3: GPC3_H3L3 (antibody, human IgG1, kappa, V domains shown)
VH: B2 VH with K19T, V37I, A40P, Q43E, M48I, L51I, Q62E, K63S, K65Q, G66D
VL: B2 VL with V2I, R24Q, S25A, Q27E, L109V, K112E
